Results taken from patent US20120202218A1 (MODPRO, published 2012).

Assays:
[1] = molecular target: Human Carbonic Anhydrase II (human, UniProt P00918 2-260); assay: Zn2+-induced gold nanoparticle aggregation assay, particles with 0% KE2C-C6 (JR2EC only)
[2] = molecular target: the molecule itself; assay: Zn2+-induced gold nanoparticle aggregation (UV-vis, TEM)

binding result [1]: no binding (tested: 70 nM)
B1: JR2EC (peptide)
peptide: H-NAADLEKAIEALEKHLEAKGPCDAAQLEKQLEQAFEAFERAG-OH
modifications: also: Cys22 thiol bound to gold nanoparticle surface
notes: Synthetic Glu-rich 42-residue helix-loop-helix peptide; It dimerizes and folds into a four-helix bundle at pH<6, or at pH 7 with Zn2+; Immobilized on gold nanoparticles; also called aggregating polypeptide
binding result [2]: binds
